Source: US20240239872A1 (SHANDONG AGRICULTURAL UNIVERSITY, published 2024)

B1: monoclonal antibody M2 (antibody, V domains shown)
VH: EVQLVESGGGLVQPKGSLKLSCAASDFTFNTHSMNWVRQAPGKVLEWIARIRSQSNNYATYYADSVKDRFTISRDDSQNMFYLQMNNLKTEDTAMYYCAGDYYGPFAYWGQGTLVAVSA
VL: DVLMTQTPLSLPVSLGDQASISCRSGQSLVHSNGNTYLHWYLQKPGQSPKLLIYKVSNRFSGVPDRFSGSGSGTDFTLKISRVEAEDLGVYFCSQSTHVPWTFGGGTKLEIK
notes: also called MAb M2
B2: monoclonal antibody C1 (antibody, V domains shown)
VH: EVQLQQSGAELVRPGALVKLSCKASGFNIKDYYMHWVKQRPEEGLEWIGWIDPENGNTIYDPKFQGKASITADTSSNTVRLQLSSLTSEDTAVYYCARERGAYWGQGTLVTVSA
VL: QIVLTQSPAIMSASPGEKVTMTCSASSSVSYMYWFQQKPGSSPRLLIYDTSNLASGVPVRFSGSGSGTSYSLTISRMEAEDAATFYCQQWSSYPLTFGAGTKLELK
notes: also called MAb C1
B3: monoclonal antibody N1 (antibody, V domains shown)
VH: EVQLVESGGGLVQPGGSLKLSCAASGFTFSSYGMSWVRQSPDKRLEWVATINNNGGSTYYPDSVKGRFTISRDNAKNTLYLQMSSLKSEDTAVYYCARDAAFDCWGQGTTLTVSS
VL: DIVMSQSPSSLAVSAGEKVTMSCKSSQSLLNSRTRKNYLAWYQQKPGQSPKLLIYWASTRESGVPDRFTGSGSGTDFTLTISSVQAEDLAVYYCKQSYNLFTFGSGTKLEIK
notes: also called MAb N1
B4: monoclonal antibody M1 (antibody, V domains shown)
VH: QVQLQQSGPELVRPGASVKMSCKTSGYPFSTYWMHWVKQRPGQGLEWIGMIKPSNSETSLNQKFKDKATLNVDKSSNTAYMQLNSLTSEDSGVYYCARAGDSWGQGTTLTVSS
VL: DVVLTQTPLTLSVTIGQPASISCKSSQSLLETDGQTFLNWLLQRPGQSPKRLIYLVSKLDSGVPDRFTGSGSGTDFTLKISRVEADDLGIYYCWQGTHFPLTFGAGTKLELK
notes: also called MAb M1
B5: monoclonal antibody M3 (antibody, V domains shown)
VH: EVILVESGGGLVKPGGSLRLSCAASGFTFSSHPLSWVRQSPDKRLEWVASISSGGRYTYYPDSVKGRLTISRDNAKNILYLHMNSLRSEDTAMYYCARRGSTATAWFAYWGQGTLVTVSA
VL: DIALTQSPASLAVSLGQRATISCKASQSVDYDGDSYMSWYQQKPGQPPKLLIYGASNLESGIPARFSGSGSGTDFTLNIHPVEEEDAATYYCQQSNEDLPTFGGGTKLEIK
notes: also called MAb M3

Assays:
[1] = biological target: T1, PVY in juice of infected plants (coat protein on virus) (Potato virus Y); assay: indirect ELISA (antigen not stated)
[2] = biological target: T1, PVY in juice of infected plants (coat …); assay: dot-ELISA on diluted juice of PVY-infected plants

Binder | Titer [1] [reciprocal dilution] | dilution of PVY-infected juice still detected [2]
B1 | 243000 | 640 times (fold dilution)
B2 | 243000 | 5120 times (fold dilution)
B3 | 243000 | 10200 times (fold dilution)
B4 | 243000 | 5120 times (fold dilution)
B5 | 243000 | 5120 times (fold dilution)
